Test results from patent publication US20230013784A1 (JIANGSU HENGRUI MEDICINE, published 2023).

T1: human CEA protein on the cell surface of MKN45 human gastric cancer cells (human, UniProt P06731 35-685)
T1 construct: whole, on cells; GPI-anchored glycoprotein; also called CEACAM-5; CD66e
T1 sequence (looked up): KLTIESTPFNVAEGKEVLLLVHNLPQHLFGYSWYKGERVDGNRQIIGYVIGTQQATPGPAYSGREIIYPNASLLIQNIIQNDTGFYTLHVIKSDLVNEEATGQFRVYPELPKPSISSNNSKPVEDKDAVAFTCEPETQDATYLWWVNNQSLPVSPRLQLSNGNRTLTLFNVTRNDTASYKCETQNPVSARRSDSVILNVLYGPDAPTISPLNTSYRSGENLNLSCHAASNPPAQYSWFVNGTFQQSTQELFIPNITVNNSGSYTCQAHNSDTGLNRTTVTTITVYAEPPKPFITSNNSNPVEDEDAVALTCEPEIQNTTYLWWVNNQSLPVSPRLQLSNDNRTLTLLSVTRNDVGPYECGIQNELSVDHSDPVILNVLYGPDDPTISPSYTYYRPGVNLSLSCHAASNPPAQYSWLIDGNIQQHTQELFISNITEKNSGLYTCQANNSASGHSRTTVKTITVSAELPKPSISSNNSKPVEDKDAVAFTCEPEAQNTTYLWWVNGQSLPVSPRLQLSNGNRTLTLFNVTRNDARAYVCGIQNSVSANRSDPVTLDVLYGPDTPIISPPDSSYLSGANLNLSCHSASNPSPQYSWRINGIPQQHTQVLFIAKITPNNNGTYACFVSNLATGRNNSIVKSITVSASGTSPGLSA

B1: mAb47 (antibody, V domains shown)
VH: QIQLVQSGPELKKPGETVKISCKASGYTFTTYGMSWVKQAPGKGLKWMGWINTYSGVPTYADDFKGRFAFSLETSASTAYLQINNLKNEDTATYFCARRGNYGRWDFDVWGTGTTVTVSS
VL: EIVLTQSPALMAASPGEKVTITCSVSSTISSSNLHWYQQKSETSPKPWIYGTSNLASGVPVRFSGSGSGTSYSLTISSMEAEDAATYYCQQWSIYPLTFGAGTKLELK
notes: murine hybridoma antibody
B2: mAb63 (antibody, V domains shown)
VH: EVQLQQSGPELVKPGASVKMSCKASGYTFTDFYMNWVRQSHGKSLEWIGDIFPKNGNTDYNRKFKDKATLTVDKSSNTVYMEFRSLTLEDSAIYFCARSGYGNYVFDYWGQGTIFTVSS
VL: DVQMTQTPSALSASLGDRVTISCRTSQDINIYLNWYQQKPDGTVKLLIYYRSGLLSGVPSRFSGSGSGTDYSLTISNLEPEDIATYFCQQGNTLPPTFGGGTKLEIK
notes: murine hybridoma antibody
B3: mAb103 (antibody, V domains shown)
VH: QIQLVQSGPELKKPGETVKISCKASGYTFTTYGVIWVKQAPGKGLKWMGWINTYSGVPTYADDFKGRFAFSLETSASTAFLQINNLKNEDTATYFCARKKTLTTVTPWFAYWGQGTLVTVSA
VL: DLVVTQSSSASFSLGASAKLTCTLSSQHSTYTIEWYQQQPLKPPKYVMELKKDGSHSTGDGIPDRFSGSSSGADRYLTISNIQPEDEAIYICGVGNTIKEQFVYVFGGGTKVTVL
notes: murine hybridoma antibody

Target: T1, human CEA protein on the cell surface …
Experiment: FACS on MKN45; with/without 5 ug/ml sCEA as competitor
Method: In order to detect whether the antibody preferentially binds to CEA present on the surface of cell membrane in the presence of sCEA (as shown in SEQ ID NO:1), the inventors pre-incubated a gradient of diluted antibodies with a certain concentration of sCEA (5 μg/ml) for 30 min, then MKN45 cells were collected (human gastric cancer cells, Nanjing Kebai Biotechnology Co., Ltd., Cat #CBP60488) and loaded into 96-well plate. The gradient of diluted antibodies as well as the mixture of pre-incubated antibody and sCEA were separately added to each well, incubated at 4° C. for 60 min and centrifuged to remove the supernatant. Pre-cooled PBS containing a final concentration of 10% FBS was added to wash the cells, repeated twice. 50 μl of 1:200 diluted secondary antibody Alexa Fluor@488 goat anti-human IgG (H+L) (Lifetechologies, Cat #A11013) was added, incubated at 4° C. in dark for 45 min and centrifuged to remove the supernatant. 250 μl of pre-cooled PBS containing a final concentration of 10% FBS was added to wash the cells; repeated twice. 100 μl of pre-cooled PBS was added to each well for resuspension. Flow cytometer (FACS) was used for detection to obtain the fluorescence signal value.

maximum fluorescence signal ratio (without sCEA v.s. with sCEA) | Binder
1.08 | B1
1.43 | B2
1.02 | B3
